Values quoted from earlier work, collected in PMC8242001.

Biological target: eIF4E (Saccharomyces cerevisiae) (UniProt P07260)
Experiment: ITC

UniProt P07260, sequence (P07260 whole entry): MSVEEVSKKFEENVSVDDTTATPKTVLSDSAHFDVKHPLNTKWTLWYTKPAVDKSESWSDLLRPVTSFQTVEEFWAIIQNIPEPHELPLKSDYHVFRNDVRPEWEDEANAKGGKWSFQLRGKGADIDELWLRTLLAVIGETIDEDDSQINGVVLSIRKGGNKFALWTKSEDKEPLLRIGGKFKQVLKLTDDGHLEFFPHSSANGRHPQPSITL

Caf20 (from UniProt P12962)
Kd: 20 nM
